Reference: patent US20190359719A1 (SORRENTO THERAPEUTICS, published 2019)

What was measured:
[1] = target: T1, c-Met (HGF receptor) expressed on cells (human, UniProt P08581 25-1390); assay: flow cytometry, antibody titration on HUVEC cells, PE anti-human IgG
T1 construct: whole, on cells; Endogenous c-Met on tumour cell lines and on human umbilical vein endothelial cells
Description: (§1) This example illustrates in vitro data for anti-c-Met antibody cellular binding EC₅₀ measurements. […] In this example, DU-145 prostate cancer cells, SK-O-V3 ovarian cancer cells, or human umbilical vein endothelial cells (HUVEC) were aliquoted into the wells of a 96-well, v-bottom plate in FACS Buffer (PBS+2% FBS). A 16-point, 2 fold serial dilution curve of antibodies made in FACS Buffer was used to stain the cells. After 1 hr incubation, cells were washed 2× with FACS Buffer and resuspended in PE-conjugated, goat anti-human IgG (γ-chain specific) secondary antibody (Southern Biotech Cat #2040-09). Cells were further incubated for 0.5 hr and then washed 1× with FACS Buffer. Cells were resuspended in FACS Buffer and the median fluorescence intensity in the FL2-A channel was determined using the Intellicyt® HTFC flow cytometer. Data was collected and analyzed on the Intellicyt® HTFC flow cytometer using the ForeCyt® software. ND=Not Determined.

[2] = target: T1, c-Met (HGF receptor) expressed on cells; assay: flow cytometry, antibody titration on DU-145 prostate cancer cells, PE anti-human IgG
Description: as §1

[3] = target: T1, c-Met (HGF receptor) expressed on cells; assay: flow cytometry, antibody titration on SK-O-V3 ovarian cancer cells, PE anti-human IgG
Description: as §1

[4] = target: T1, c-Met (HGF receptor) expressed on cells; assay: as above; remark: listed apart in the source
Description: as §1, with “cells or” for “cells,”, “cancer” for “cancer cells, or human umbilical vein endothelial”, “cells” for “cells (HUVEC)”, “Determined” for “Determined.”

[5] = target: T1, c-Met (HGF receptor) expressed on cells; assay: flow cytometry, antibody titration on DU-145 prostate cancer cells, PE anti-human IgG; remark: listed apart in the source
Description: as §1, with “cells or” for “cells,”, “cancer” for “cancer cells, or human umbilical vein endothelial”, “cells” for “cells (HUVEC)”, “Determined” for “Determined.”

T1 sequence (P08581 25-1390): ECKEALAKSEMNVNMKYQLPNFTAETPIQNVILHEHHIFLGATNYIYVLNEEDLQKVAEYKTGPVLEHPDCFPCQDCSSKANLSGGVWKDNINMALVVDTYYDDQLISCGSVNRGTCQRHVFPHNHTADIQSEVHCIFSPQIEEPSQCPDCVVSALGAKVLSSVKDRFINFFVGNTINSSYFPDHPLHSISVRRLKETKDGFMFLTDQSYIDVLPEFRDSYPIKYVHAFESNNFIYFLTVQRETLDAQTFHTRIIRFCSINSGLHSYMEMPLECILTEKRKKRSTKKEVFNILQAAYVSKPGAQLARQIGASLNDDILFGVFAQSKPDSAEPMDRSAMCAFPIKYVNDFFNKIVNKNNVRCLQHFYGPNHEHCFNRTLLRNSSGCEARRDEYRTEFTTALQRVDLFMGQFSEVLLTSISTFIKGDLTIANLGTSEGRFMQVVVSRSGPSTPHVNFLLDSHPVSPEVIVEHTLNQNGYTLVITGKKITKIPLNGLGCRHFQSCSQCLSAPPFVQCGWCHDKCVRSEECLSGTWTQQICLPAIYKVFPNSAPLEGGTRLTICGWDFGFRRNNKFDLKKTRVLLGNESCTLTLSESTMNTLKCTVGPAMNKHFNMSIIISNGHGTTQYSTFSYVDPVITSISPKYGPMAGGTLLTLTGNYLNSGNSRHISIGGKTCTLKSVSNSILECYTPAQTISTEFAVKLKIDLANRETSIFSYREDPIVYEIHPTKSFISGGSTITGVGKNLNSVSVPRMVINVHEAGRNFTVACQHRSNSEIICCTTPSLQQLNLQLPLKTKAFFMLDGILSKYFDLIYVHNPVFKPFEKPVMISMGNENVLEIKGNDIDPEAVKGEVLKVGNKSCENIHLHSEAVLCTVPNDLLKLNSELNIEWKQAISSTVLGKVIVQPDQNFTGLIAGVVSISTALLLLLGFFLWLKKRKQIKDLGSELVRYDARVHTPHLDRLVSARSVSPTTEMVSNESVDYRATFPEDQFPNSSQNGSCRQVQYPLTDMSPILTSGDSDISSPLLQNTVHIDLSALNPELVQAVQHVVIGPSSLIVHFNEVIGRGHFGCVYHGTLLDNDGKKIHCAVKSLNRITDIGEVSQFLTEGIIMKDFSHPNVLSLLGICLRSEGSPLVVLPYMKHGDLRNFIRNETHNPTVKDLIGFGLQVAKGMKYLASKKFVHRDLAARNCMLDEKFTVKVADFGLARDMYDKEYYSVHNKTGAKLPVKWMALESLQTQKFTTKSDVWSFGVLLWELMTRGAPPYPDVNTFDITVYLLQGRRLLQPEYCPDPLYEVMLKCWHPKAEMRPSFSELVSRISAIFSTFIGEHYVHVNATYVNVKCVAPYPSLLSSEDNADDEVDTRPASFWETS

Row | Binder | EC50 [1] | EC50 [2] | EC50 [3] | EC50 [4] | EC50 [5]
1 | El-A10 (E1 derived anti-c-Met antibody) (antibody, V domains shown, The two labels are matched by their suffix only; Detected with anti-human IgG (gamma-chain specific); also called E1-A10; GCE-A10) VH: not shown VL: QSVVTQPPSVSGAPGQRVTISCLGSASNIGAGHDVHWYQQLPGTAPKLLIYGNSNRPSGVPDRFSGSKSGTSASLAITGLQAEDEADYYCQSYSSSLSAYVFGTGTKVTVL | 0.148 nM | 0.2 nM | 0.153 nM |  | 
2 | El-A11 (E1 derived anti-c-Met antibody) (antibody, V domains shown, Label 'El-A11' matched to 'GCE-A11' by suffix only; Detected with anti-human IgG; also called E1-A11; GCE-A11) VH: QVQLVQSGAEVKKPGASVKVSCKASGFTFSGDYIHWVRQAPGQGLEWMGWINPNSGGTNYAQKFQGRVTMTRDTSISTAYMELSRLRSDDTAVYYCAREPARDYYYYDGLDVWGQGTTVTVSS VL: QSVVTQPPSVSGAPGQRVTISCLGSSSNIGAGHDVHWYQQLPGTAPKLLIYGNSNRISGVPDRFSGSKSGTSASLAITGLQAEDEADYYCQSYSSSLSAYLFGTGTKVTVL |  | 0.26 nM | 0.2 nM |  | 
3 | El-A13 (E1 derived anti-c-Met antibody) (antibody, V domains shown, Label 'El-A13' matched to 'GCE-A13' by suffix only; Detected with anti-human IgG; also called E1-A13; GCE-A13) VH: QVQLVQSGAEVKKPGASVKVSCKASGYTFSGDYLHWVRQAPGQGLEWMGWINPNSGGTNYAQKFQGRVTMTRDTSISTAYMELSRLRSDDTAVYYCAREPARDYYYYDGLDVWGQGTTVTVSS VL: QSVVTQPPSVSGAPGQRVTISCLGSASNIGAGHDVHWYQQLPGTAPKLLIYGNSNRPSGVPDRFSGSKSGTSASLAITGLQAEDEADYYCQSYSSSLSAYVFGTGTKVTVL |  | 0.362 nM | 0.159 nM |  | 
4 | El-A14 (E1 derived anti-c-Met antibody) (antibody, V domains shown, Label 'El-A14' matched to 'GCE-A14' by suffix only; Detected with anti-human IgG; also called E1-A14; GCE-A14) VH: QVQLVQSGAEVKKPGASVKVSCKASGYTFSGDYIHWVRQAPGQGLEWMGWINPNSGGTNYAQKFQGRVTMTRDTSISTAYMELSRLRSDDTAVYYCAREPARDYYYYDGLDVWGQGTTVTVSS VL: QSVVTQPPSVSGAPGQRVTISCIGSSSNIGAGHDVHWYQQLPGTAPKLLIYGNSNRPSGVPDRFSGSKSGTSASLAITGLQAEDEADYYCQSYSSSLSAYVFGTGTKVTVL | 0.132 nM | 0.212 nM | 0.12 nM |  | 
5 | El-A18 (E1 derived anti-c-Met antibody) (antibody, V domains shown, Label 'El-A18' matched to 'GCE-A18' by suffix only; Detected with anti-human IgG; also called E1-A18; GCE-A18) VH: not shown VL: QSVVTQPPSVSGAPGQRVTISCIGSASNIGAGHDVHWYQQLPGTAPKLLIYGNSNRPSGVPDRFSGSKSGTSASLAITGLQAEDEADYYCQSYSSSLSAYVFGTGTKVTVL | 0.606 nM |  | 1.15 nM |  | 
6 | El-B11 (E1 derived anti-c-Met antibody) (antibody, V domains shown, Label 'El-B11' matched to 'GCE-B11' by suffix only; Detected with anti-human IgG; also called E1-B11; GCE-B11) VH: QVQLVQSGAEVKKPGASVKVSCKASGYTFSGDYIHWVRQAPGQGLEWMGWINPNSGGTNYAQKFQGRVTMTRDTSISTAYMELSRLRSDDTAVYYCAREPARDYYYYDGLDVWGQGTTVTVSS VL: QSVVTQPPSVSGAPGQRVTISCIGSSSNIGAGYDVHWYQQLPGTAPKLLIYGNSNRISGVPDRFSGSKSGTSASLAITGLQAEDEADYYCQSYSSSLSAVLFGTGTKVTVL |  | 0.34 nM | 0.41 nM |  | 
7 | El-B13 (E1 derived anti-c-Met antibody) (antibody, V domains shown, Label 'El-B13' matched to 'GCE-B13' by suffix only; Detected with anti-human IgG; also called E1-B13; GCE-B13) VH: QVQLVQSGAEVKKPGASVKVSCKASGSTFSGDYIHWVRQAPGQGLEWMGWINPNSGGTNYAQKFQGRVTMTRDTSISTAYMELSRLRSDDTAVYYCAREPARDYYYYDGLDVWGQGTTVTVSS VL: QSVVTQPPSVSGAPGQRVTISCLGSASNIGAGHDVHWYQQLPGTAPKLLIYGNSNRPSGVPDRFSGSKSGTSASLAITGLQAEDEADYYCQSYSSSLSAVLFGTGTKVTVL | 0.19 nM | 0.251 nM | 0.191 nM |  | 
8 | El-B19 (E1 derived anti-c-Met antibody) (antibody, V domains shown, Label 'El-B19' matched to 'GCE-B19' by suffix only; Detected with anti-human IgG; also called E1-B19; GCE-B19) VH: QVQLVQSGAEVKKPGASVKVSCKASGFTFSGDYIHWVRQAPGQGLEWMGWINPNSGGTNYAQKFQGRVTMTRDTSISTAYMELSRLRSDDTAVYYCAREPGRDYYYYDGLDVWGQGTTVTVSS VL: QSVVTQPPSVSGAPGQRVTISCLGSASNIGAGHDVHWYQQLPGTAPKLLIYGNSNRPSGVPDRFSGSKSGTSASLAITGLQAEDEADYYCQSYSSSLSAVLFGTGTKVTVL |  | 3.35 nM | 0.852 nM |  | 
9 | El-BR1 (E1 derived anti-c-Met antibody) (antibody, V domains shown, Label 'El-BR1' matched to 'GCE-BR1' by suffix only; Detected with anti-human IgG; also called E1-BR1; GCE-BR1) VH: QVQLVQSGAEVKKPGASVKVSCKASGSTFSGDYLHWVRQAPGQGLEWMGWINPNSGGTNYAQKFQGRVTMTRDTSISTAYMELSRLRSDDTAVYYCAREPARDYYYYDGLDVWGQGTTVTVSS VL: QSVVTQPPSVSGAPGQRVTISCLGSASNIGAGYDVHWYQQLPGTAPKLLIYGNSNRPSGVPDRFSGSKSGTSASLAITGLQAEDEADYYCQSYSSSLSAVLFGTGTKVTVL | 0.376 nM | 3.36 nM | 0.467 nM |  | 
10 | A1-2 anti-c-Met antibody (antibody, V domains shown, Detected with anti-human IgG (gamma-chain specific)) VH: QVQLQESGPGLVKPSQTLSLTCTVSGGSISSGGYYWSWIRQHPGKGLEWIGESTHSGSTNYNPSLKSRVTISVDTSKNQFSLKLSSVTAADTAVYYCARGRDGYDFDAWGQGTLVTVSS VL: LPVLTQPASVSGSPGQSITISCTGTSFDVGGYNYVSWYQQHPGKAPKLMIYDVSDRPSGVSTRFSGSKSGNTASLTISGLQAEDEADYYCSSFRSSSALVVFGGGTKLTVL |  |  |  | 0.223 nM | 
11 | A1-4 anti-c-Met antibody (antibody, V domains shown, Detected with anti-human IgG (gamma-chain specific)) VH: QVQLQESGPGLVKPSQTLSLTCTVSGGSISSGGYYWSWIRQHPGKGLEWIGESSHSGSTNYNPSLKSRVTISVDTSKNQFSLKLSSVTAADTAVYYCARGRDGYYFDAWGQGTLVTVSS VL: LPVLTQPASVSGSPGQSITISCTGTSSDVGGYPYVSWYQQHPGKAPKLMIYVVSDRPSGVSTRFSGSKSGNTASLTISGLQAEDEADYYCSSYRSSSALVVFGGGTQLTVL |  |  |  | 0.054 nM | 0.017 nM
12 | A1-6 anti-c-Met antibody (antibody, V domains shown, Detected with anti-human IgG (gamma-chain specific)) VH: QVQLQESGPGLVKPSQTLSLTCTVSGGSISSGGYYWSWIRQHPGKGLEWIGEITHSGSTNYNPSLKSRVTISVDTSKNQFSLKLSSVTAADTAVYYCARGRDGYDIDAWGQGTLVTVSS VL: LPVLTQPASVSGSPGQSITISCTGTSWDVGGYPYVSWYQQHPGKAPKLMIYDVSDRPSGVSTRFSGSKSGNTASLTISGLQAEDEADYYCSSYRSVSALVVFGGGTKLTVL |  |  |  | 0.053 nM | 
13 | A1-9 anti-c-Met antibody (antibody, V domains shown, Detected with anti-human IgG (gamma-chain specific)) VH: QVQLQESGPGLVKPSQTLSLTCTVSGGSISSGGYYWSWIRQHPGKGLEWIGEISHSGSTNYNPSLKSRVTISVDTSKNQFSLKLSSVTAADTAVYYCARGRDGYYLDQWGQGTLVTVSS VL: LPVLTQPASVSGSPGQSITISCTGTSSDVGGYNYVSWYQQHPGKAPKLMIYNVSDRPSGVSTRFSGSKSGNTASLTISGLQAEDEADYYCSSFRSSSALVVFGGGTKLTVL |  |  |  | 0.076 nM | 0.058 nM
14 | A1-24 anti-c-Met antibody (antibody, V domains shown, Detected with anti-human IgG (gamma-chain specific)) VH: QVQLQESGPGLVKPSQTLSLTCTVSGGSISSGGYYWSWIRQHPGKGLEWIGESTHSGSTNYNPSLESRVTISVDTSKNQFSLKLSSVTAADTAVYYCARGRDSYDFDAWGQGTLVTVSS VL: LPVLTQPASVSGSPGQSITISCTGTSFDVGGYNYVSWYQQHPGKAPKLMIYDVSDRPSGVSTRFSGSKSGNTASLTISGLQAEDEADYYCSSFRSSAALVVFGGGTKLTVL |  |  |  | 0.135 nM | 0.003 nM
15 | A1-32 anti-c-Met antibody (antibody, V domains shown, Detected with anti-human IgG (gamma-chain specific)) VH: QVQLQESGPGLVKPSQTLSLTCTVSGGSISSGGYYWSWIRQHPGKGLEWIGESTHSGSTNYNPSLDSRVTISVDTSKNQFSLKLSSVTAADTAVYYCARGRDGYYLDQWGQGTLVTVSS VL: LPVLTQPASVSGSPGQSITISCTGTSFDVGGYPYVSWYQQHPGKAPKLMIYDVSDRPSGVSTRFSGSKSGNTASLTISGLQAEDEADYYCSSFRSSAALVVFGGGTKLTVL |  |  |  | 0.109 nM | 0.064 nM
